± gives the uncertainty stated by the source.

A short description of the series: self-splicing fitness, log relative to wild type (ln ratio); higher = more splicing; Tetrahymena group I intron in knt gene, E. coli kanamycin selection, DiMSum; sequences stand for … in CUCUCU…GGAGGGAAAAGUUAUCAGGCAUGCACCUGGUAGCUAGUCUUUAAACCAAUAGAUUGCAUCGGUUUAAAAGGCAAGACCGUCAAAUUGCGGGAAAGGGGUCAACAGCCGUUCAGUACCAAGUCUCAGGGGAAACUUUGAGAUGGCCUUGCAAAGGGUAUGGUAAUAAGCUGACGGACAUGGUCCUAACCACGCAGCCAAGUCCUAAGUCAACAGAUCUUCUGUUGAUAUGGAUGCAGUUCACAGACUAAAUGUCGGUCGGGGAAGAUGUAUUCUUCUCAUAAGAUAUAGUCGGACCUCUCCUUAAUGGGAGCUAGCGGAUGAAGUGAUGCAACACUGGAGCCGCUGGGAACUAAUUUGUAUGCGAAAGUAUAUUGAUUAGUUUUGGAGUACUCGUGGUCG
An outline of the steps: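 A randomised library covering all eight P1ex-region intron nucleotides was built with the intron in the knt kanamycin-resistance gene on pET-22b(+) and held in E. coli BL21(DE3). Cells were grown overnight at 37°C or 30°C on LB agar, with or without 25 μg/mL kanamycin, plus 100 μg/mL carbenicillin, 50 μM IPTG and 0.2% rhamnose, and pooled colonies were amplicon-sequenced on an Illumina HiSeq 2500. DiMSum fitness is the error-weighted combination of wild-type-normalised replicate fold changes, kanamycin versus none.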

Consider GUUCAGCAAUAUUACGUCGG, for which the “self-splicing fitness (ln)” value is -3.7 ± 0.21 (30 °C) and -2.39 ± 0.23 (37 °C).

Turning to GCCAAGCAAUAUUACGUACA, the “self-splicing fitness (ln)” value by setting is: (30 °C) -2.65 ± 0.16; (37 °C) -1.65 ± 0.11.

In the case of UUUGAGCAAUAUUACGAUGU, the “self-splicing fitness (ln)” value (30 °C) is -3.05 ± 0.3 and the “self-splicing fitness (ln)” value (37 °C) is -2.34 ± 0.39.

On to CCUAAGCAAUAUUACGUCUC, for which the “self-splicing fitness (ln)” value is -3.01 ± 0.11 (30 °C) and -3.11 ± 0.19 (37 °C).

UGAAAGCAAUAUUACGUAAU: the “self-splicing fitness (ln)” value (30 °C) was -3.71 ± 0.14 and the “self-splicing fitness (ln)” value (37 °C) was -0.793 ± 0.11.

With ACAUAGCAAUAUUACGCAUU, the “self-splicing fitness (ln)” value (30 °C) is -3.32 ± 0.11 and the “self-splicing fitness (ln)” value (37 °C) was -2.46 ± 0.13.

Consider UUCCAGCAAUAUUACGGCUU, for which the “self-splicing fitness (ln)” value is, setting by setting: (30 °C) -1.4 ± 0.11; (37 °C) -0.36 ± 0.1.

For AGCCAGCAAUAUUACGGCCU, the “self-splicing fitness (ln)” value (30 °C) was -2.07 ± 0.14 and the “self-splicing fitness (ln)” value (37 °C) is -0.992 ± 0.15.

On to UACGAGCAAUAUUACGCCAC, for which the “self-splicing fitness (ln)” value (37 °C) is -2.29 ± 0.42.

CAGCAGCAAUAUUACGUGGU: the “self-splicing fitness (ln)” value by setting is: (30 °C) -3.99 ± 0.19; (37 °C) -2.93 ± 0.18.

For the sequence UUCCAGCAAUAUUACGUAGG, the “self-splicing fitness (ln)” value by setting is: (30 °C) -4.29 ± 0.42; (37 °C) -2.44 ± 0.23.

Take AACAAGCAAUAUUACGGAAU: the “self-splicing fitness (ln)” value is, setting by setting: (30 °C) -2.64 ± 0.13; (37 °C) -1.75 ± 0.14.

As for GUCAAGCAAUAUUACGCCUA, the “self-splicing fitness (ln)” value by setting is: (30 °C) -0.294 ± 0.12; (37 °C) 0.0798 ± 0.093.

CAAGAGCAAUAUUACGGGGG: the “self-splicing fitness (ln)” value reads like this: (30 °C) -3.3 ± 0.21; (37 °C) -2.62 ± 0.2.

As for UUGAAGCAAUAUUACGAGGG, the “self-splicing fitness (ln)” value is, setting by setting: (30 °C) -1.6 ± 0.17; (37 °C) -1.37 ± 0.24.

As to GUACAGCAAUAUUACGCCCC, the “self-splicing fitness (ln)” value is -1.32 ± 0.2 (30 °C) and -0.26 ± 0.32 (37 °C).

As for CAUGAGCAAUAUUACGCAAC, the “self-splicing fitness (ln)” value is -1.07 ± 0.29 (30 °C) and -1.69 ± 0.43 (37 °C).

With UACGAGCAAUAUUACGACCA, the “self-splicing fitness (ln)” value (30 °C) is -1.71 ± 0.42.

CUCGAGCAAUAUUACGGGAU: the “self-splicing fitness (ln)” value is -3.84 ± 0.36 (30 °C) and -1.93 ± 0.3 (37 °C).

In the case of UUUAAGCAAUAUUACGGCGA, the “self-splicing fitness (ln)” value was 0.000504 ± 0.075 (30 °C) and 0.503 ± 0.1 (37 °C).

In the case of GUGUAGCAAUAUUACGUUGC, the “self-splicing fitness (ln)” value is -1.92 ± 0.22 (30 °C) and -2.28 ± 0.46 (37 °C).

As to AGAAAGCAAUAUUACGGAGG, the “self-splicing fitness (ln)” value reads like this: (30 °C) -3.33 ± 0.16; (37 °C) -2.72 ± 0.3.

Consider CUCGAGCAAUAUUACGUCUG, for which the “self-splicing fitness (ln)” value runs as follows: (30 °C) -2.84 ± 0.19; (37 °C) -1.2 ± 0.18.

On to GUAGAGCAAUAUUACGAAAC, for which the “self-splicing fitness (ln)” value is, setting by setting: (30 °C) 0.2 ± 0.34; (37 °C) -0.546 ± 0.32.

In the case of UUUCAGCAAUAUUACGCUAC, the “self-splicing fitness (ln)” value is -2.95 ± 0.22 (30 °C) and -2.39 ± 0.34 (37 °C).

Regarding ACCUAGCAAUAUUACGAGCG, the “self-splicing fitness (ln)” value (30 °C) is -1.06 ± 0.085 and the “self-splicing fitness (ln)” value (37 °C) is -0.509 ± 0.097.

For UAGUAGCAAUAUUACGGGAG, the “self-splicing fitness (ln)” value was -3.69 ± 0.4 (30 °C) and -2.3 ± 0.45 (37 °C).

With GGACAGCAAUAUUACGCAGA, the “self-splicing fitness (ln)” value reads like this: (30 °C) -0.851 ± 0.16; (37 °C) -0.643 ± 0.15.

On to AUCCAGCAAUAUUACGACCA, for which the “self-splicing fitness (ln)” value was -0.725 ± 0.15 (30 °C) and -0.224 ± 0.17 (37 °C).

Consider AUAAAGCAAUAUUACGGUUA, for which the “self-splicing fitness (ln)” value is, setting by setting: (30 °C) 0.442 ± 0.078; (37 °C) 0.534 ± 0.09.

Turning to GUCCAGCAAUAUUACGAAAG, the “self-splicing fitness (ln)” value is, setting by setting: (30 °C) -3.37 ± 0.21; (37 °C) -0.318 ± 0.17.

With GCUAAGCAAUAUUACGUGAG, the “self-splicing fitness (ln)” value was -0.321 ± 0.06 (30 °C) and -0.28 ± 0.071 (37 °C).

Take CAGAAGCAAUAUUACGCAAC: where the note is “37 °C”, the “self-splicing fitness (ln)” value is -2.39 ± 0.33.

For the sequence CAGAAGCAAUAUUACGUCCU, the “self-splicing fitness (ln)” value was -1.94 ± 0.18 (30 °C) and -0.858 ± 0.16 (37 °C).

For the sequence UAUUAGCAAUAUUACGUACA, the “self-splicing fitness (ln)” value (30 °C) was -0.773 ± 0.22 and the “self-splicing fitness (ln)” value (37 °C) was -0.493 ± 0.23.

For CGAAAGCAAUAUUACGCAUG, the “self-splicing fitness (ln)” value by setting is: (30 °C) -1.56 ± 0.1; (37 °C) -0.368 ± 0.11.

As for GUGAAGCAAUAUUACGCUGU, the “self-splicing fitness (ln)” value (30 °C) was -2.74 ± 0.13 and the “self-splicing fitness (ln)” value (37 °C) was -1.29 ± 0.12.

As to ACCAAGCAAUAUUACGUCGG, the “self-splicing fitness (ln)” value is -2.09 ± 0.074 (30 °C) and -1.36 ± 0.09 (37 °C).

UCACAGCAAUAUUACGUCUA: the “self-splicing fitness (ln)” value is -1.25 ± 0.077 (30 °C) and -0.331 ± 0.075 (37 °C).

On to GUAGAGCAAUAUUACGUACA, for which the “self-splicing fitness (ln)” value is, setting by setting: (30 °C) -0.971 ± 0.11; (37 °C) -1.12 ± 0.17.

Consider CGUGAGCAAUAUUACGUCUC, for which the “self-splicing fitness (ln)” value is, setting by setting: (30 °C) -3.22 ± 0.21; (37 °C) -2.29 ± 0.19.

With GUGCAGCAAUAUUACGAUAA, the “self-splicing fitness (ln)” value (30 °C) was -2.55 ± 0.16 and the “self-splicing fitness (ln)” value (37 °C) is -1.04 ± 0.13.

Regarding CUGAAGCAAUAUUACGUAAA, the “self-splicing fitness (ln)” value runs as follows: (30 °C) -2.54 ± 0.33; (37 °C) -1.7 ± 0.46.

On to UCCAAGCAAUAUUACGUCAU, for which the “self-splicing fitness (ln)” value runs as follows: (30 °C) -3.09 ± 0.14; (37 °C) -1.39 ± 0.11.

In the case of AUGUAGCAAUAUUACGGUUA, the “self-splicing fitness (ln)” value (30 °C) was -0.747 ± 0.17 and the “self-splicing fitness (ln)” value (37 °C) is -0.518 ± 0.14.

As for AUCAAGCAAUAUUACGUCUU, the “self-splicing fitness (ln)” value runs as follows: (30 °C) -1.86 ± 0.072; (37 °C) -0.301 ± 0.073.

In the case of GCUCAGCAAUAUUACGGUAC, the “self-splicing fitness (ln)” value (30 °C) was -0.486 ± 0.13 and the “self-splicing fitness (ln)” value (37 °C) is -0.709 ± 0.15.

Turning to UCGCAGCAAUAUUACGCAUU, the “self-splicing fitness (ln)” value reads like this: (30 °C) -2.57 ± 0.18; (37 °C) -2.43 ± 0.21.

For UGUAAGCAAUAUUACGCCCA, the “self-splicing fitness (ln)” value reads like this: (30 °C) -0.177 ± 0.18; (37 °C) 0.0098 ± 0.2.

As to AGAGAGCAAUAUUACGCGCC, the “self-splicing fitness (ln)” value (30 °C) is -2.58 ± 0.46.

Regarding UGAAAGCAAUAUUACGUAAC, the “self-splicing fitness (ln)” value (37 °C) is -1.29 ± 0.25.

In the case of ACACAGCAAUAUUACGUAUC, the “self-splicing fitness (ln)” value runs as follows: (30 °C) -3.71 ± 0.15; (37 °C) -2.8 ± 0.15.

As for CGCAAGCAAUAUUACGGUUC, the “self-splicing fitness (ln)” value is -4.01 ± 0.23 (30 °C) and -2.6 ± 0.16 (37 °C).

On to CCGUAGCAAUAUUACGAAAG, for which the “self-splicing fitness (ln)” value by setting is: (30 °C) -1.37 ± 0.088; (37 °C) 0.537 ± 0.1.

AGGGAGCAAUAUUACGCUCG: the “self-splicing fitness (ln)” value reads like this: (30 °C) -2.31 ± 0.27; (37 °C) -2.12 ± 0.3.

In the case of UCCGAGCAAUAUUACGGCAA, the “self-splicing fitness (ln)” value is -1.43 ± 0.11 (30 °C) and -0.233 ± 0.13 (37 °C).

Take CAAGAGCAAUAUUACGGUCU: the “self-splicing fitness (ln)” value was -2.35 ± 0.16 (30 °C) and -1.97 ± 0.22 (37 °C).

As for AAAUAGCAAUAUUACGGACC, the “self-splicing fitness (ln)” value is -1.57 ± 0.25 (30 °C) and -1.26 ± 0.31 (37 °C).

On to UUUUAGCAAUAUUACGAUUA, for which the “self-splicing fitness (ln)” value was -0.349 ± 0.16 (30 °C) and 0.0391 ± 0.13 (37 °C).

With UAACAGCAAUAUUACGCCUU, the “self-splicing fitness (ln)” value runs as follows: (30 °C) -1.48 ± 0.074; (37 °C) -0.968 ± 0.094.

For the sequence GGUUAGCAAUAUUACGGCAG, the “self-splicing fitness (ln)” value (30 °C) was -1.83 ± 0.19 and the “self-splicing fitness (ln)” value (37 °C) was -1.43 ± 0.21.

The values are drawn from the supplement of paper PMC7877785.
